B1: Phosphatidylinositol 3,4,5-trisphosphate 3-phosphatase and dual-specificity protein phosphatase daf-18 (Caenorhabditis elegans), G5EE01 (parent)
chain: MVTPPPDVPSTSTRSMARDLQENPNRQPGEPRVSEPYHNSIVERIRHIFRTAVSSNRCRTEYQNIDLDCAYITDRIIAIGYPATGIEANFRNSKVQTQQFLTRRHGKGNVKVFNLRGGYYYDADNFDGNVICFDMTDHHPPSLELMAPFCREAKEWLEADDKHVIAVHCKAGKGRTGVMICALLIYINFYPSPRQILDYYSIIRTKNNKGVTIPSQRRYIYYYHKLRERELNYLPLRMQLIGVYVERPPKTWGGGSKIKVEVGNGSTILFKPDPLIISKSNHQRERATWLNNCDTPNEFDTGEQKYHGFVSKRAYCFMVPEDAPVFVEGDVRIDIREIGFLKKFSDGKIGHVWFNTMFACDGGLNGGHFEYVDKTQPYIGDDTSIGRKNGMRRNETPMRKIDPETGNEFESPWQIVNPPGLEKHITEEQAMENYTNYGMIPPRYTISKILHEKHEKGIVKDDYNDRKLPMGDKSYTESGKSGDIRGVGGPFEIPYKAEEHVLTFPVYEMDRALKSKDLNNGMKLHVVLRCVDTRDSKMMEKSEVFGNLAFHNESTRRLQALTQMNPKWRPEPCAFGSKGAEMHYPPSVRYSSNDGKYNGACSENLVSDFFEHRNIAVLNRYCRYFYKQRSTSRSRYPRKFRYCPLIKKHFYIPADTDDVDENGQPFFHSPEHYIKEQEKIDAEKAAKGIENTGPSTSGSSAPGTIKKTEASQSDKVKPATEDELPPARLPDNVRRFPVVGVDFENPEEESCEHKTVESIAGFEPLEHLFHESYHPNTAGNMLRQDYHTDSEVKIAEQEAKAFVDQLLNGQGVLQEFMKQFKVPSDNSFADYVTGQAEVFKAQIALLEQSEDFQRVQANAEEVDLEHTLGEAFERFGHVVEESNGSSKNPKALKTREQMVKETGKDTQKTRNHVLLHLEANHRVQIERRETCPELHPEDKIPRIAHFSENSFSDSNFDQAIYL
partner: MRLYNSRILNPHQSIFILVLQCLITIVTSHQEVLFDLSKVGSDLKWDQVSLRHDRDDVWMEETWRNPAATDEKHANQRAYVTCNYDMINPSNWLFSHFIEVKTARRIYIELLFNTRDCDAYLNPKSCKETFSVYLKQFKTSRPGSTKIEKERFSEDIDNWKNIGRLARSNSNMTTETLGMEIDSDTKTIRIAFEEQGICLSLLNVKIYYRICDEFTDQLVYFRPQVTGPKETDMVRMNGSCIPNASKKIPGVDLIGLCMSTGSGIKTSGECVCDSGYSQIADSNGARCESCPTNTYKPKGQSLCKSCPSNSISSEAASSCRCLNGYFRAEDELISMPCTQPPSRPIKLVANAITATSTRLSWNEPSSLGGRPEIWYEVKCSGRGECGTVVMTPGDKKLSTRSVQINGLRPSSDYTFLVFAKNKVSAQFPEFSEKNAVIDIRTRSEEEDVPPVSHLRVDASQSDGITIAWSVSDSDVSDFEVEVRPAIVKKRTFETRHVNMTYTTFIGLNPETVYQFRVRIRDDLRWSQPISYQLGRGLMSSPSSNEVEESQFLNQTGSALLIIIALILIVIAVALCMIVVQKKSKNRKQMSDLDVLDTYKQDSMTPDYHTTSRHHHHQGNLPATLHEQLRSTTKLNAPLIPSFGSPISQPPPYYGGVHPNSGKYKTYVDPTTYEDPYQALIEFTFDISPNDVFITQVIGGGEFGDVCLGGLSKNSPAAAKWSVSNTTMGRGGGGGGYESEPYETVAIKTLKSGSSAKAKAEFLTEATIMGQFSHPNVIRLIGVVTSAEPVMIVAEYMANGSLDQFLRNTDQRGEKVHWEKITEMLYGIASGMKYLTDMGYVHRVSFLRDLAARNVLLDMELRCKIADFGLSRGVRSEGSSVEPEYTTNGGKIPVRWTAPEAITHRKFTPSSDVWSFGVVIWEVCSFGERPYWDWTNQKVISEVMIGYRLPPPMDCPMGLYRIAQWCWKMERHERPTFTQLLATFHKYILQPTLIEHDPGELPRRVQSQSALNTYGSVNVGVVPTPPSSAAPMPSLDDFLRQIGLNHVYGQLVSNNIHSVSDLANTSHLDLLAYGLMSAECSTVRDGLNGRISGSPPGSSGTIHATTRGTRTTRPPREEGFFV

Variants of: B1
Settings: with vab1_caeel vab-1, O61460

Row | effect of a mutation on the interaction | Variant
1 | increasing interaction | D137A

Reference: IntAct's records for PubMed 19853560
